The series “SEC” deals with the molecule itself. The experiment in a line: SEC.
The series “SEC + SEC-MALS” concerns the molecule itself. The experiment in a line: SEC + SEC-MALS. For orientation: In gel filtration, larger molecules generally elute earlier.

B1: PaCDTΔC (enzyme, Pseudomonas aeruginosa, UniProt Q01269 26-259, looked up)
chain: QESRLDRILESGVLRVATTGDYKPFSYRTEEGGYAGFDVDMAQRLAESLGAKLVVVPTSWPNLMRDFADDRFDIAMSGISINLERQRQAYFSIPYLRDGKTPITLCSEEARFQTLEQIDQPGVTAIVNPGGTNEKFARANLKKARILVHPDNVTIFQQIVDGKADLMMTDAIEARLQSRLHPELCAVHPQQPFDFAEKAYLLPRDEAFKRYVDQWLHIAEQSGLLRQRMEHWLE
One may read the stoichiometry N as a count of units in the complex or per binding partner. Turning to B1, the “stoichiometry N” value in the series “SEC” was determined as 3.

B2: Ws0279 (natural protein, UniProt Q7MAG0 24-258, looked up)
chain: QKSTLNEIIKRGELRVGLEPGYLPFEMKDKKGNVIGFDVDLAREMAKAMGVKLKLVPTSWDGLIPGLVTEKFDIIISGMTISQERNLRVNFVEPYIVVGQSLLVKKGLEKGVKSYKDLDKPELTLVTKFGVSAEYAAKRLFKNAKLKTYDTEAEAVQEVLNGKADMFIFDLPFNVAFMAQKGQGYLVHLDTSLTYEPLGWAIKKGDPDFLNWLNHFLAQIKHDGSYDELYERWFV
In the case of B2, in “SEC”, the “stoichiometry N” value turned out to be 3.

B3: Cyclohexadienyl dehydratase from Pseudomonas aeruginosa (PaCDT) (enzyme, UniProt Q01269 26-268, looked up)
chain: QESRLDRILESGVLRVATTGDYKPFSYRTEEGGYAGFDVDMAQRLAESLGAKLVVVPTSWPNLMRDFADDRFDIAMSGISINLERQRQAYFSIPYLRDGKTPITLCSEEARFQTLEQIDQPGVTAIVNPGGTNEKFARANLKKARILVHPDNVTIFQQIVDGKADLMMTDAIEARLQSRLHPELCAVHPQQPFDFAEKAYLLPRDEAFKRYVDQWLHIAEQSGLLRQRMEHWLEYRWPTAHGK
In the case of B3, the “stoichiometry N” value in the series “SEC + SEC-MALS” is 3.

For the origin of these results see publication doi:10.1101/2022.09.13.507756 (bioRxiv, 2022).
